Consider 1 substance from publication PMC6497953.

For this test, the target named is PilE2, major pilin of Streptococcus sanguinis 2908 type IV pili (mature, untagged) (Streptococcus sanguinis 2908). Briefly: top-down mass spectrometry of purified filaments; purified Tfp from S. sanguinis WT, intact protein mass spectra on an LTQ Orbitrap; ratio of the two major proteoforms.

In the case of “PilE1, major pilin of Streptococcus sanguinis 2908 type IV pili (mature, untagged) (natural protein)”, the stoichiometry N (PilE1 per PilE2) was determined as 1.33.
